72 sequences from the supplement of paper PMC10567573 can be followed below.

A short description of this data set: protein stability index of a GFP-peptide fusion (GPS, HEK-293T) (PSI 1-6); higher = more stable.
[1] abbreviates: treatment: DMSO, c terminus: a fixed tail appended.
Setting [2] is: treatment: MLN4924 1 uM, 8 h, c terminus: a fixed tail appended.
Where [3] appears, read: treatment: DMSO, c terminus: native.
[4] abbreviates: treatment: MLN4924 1 uM, 8 h, c terminus: native.

± gives the standard deviation.
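Further: 24-mer peptide tiles fused after GFP, lentivirally expressed, FACS-sorted into six equal bins by GFP/DsRed ratio, decoded by Illumina sequencing, PSI is the read-weighted mean bin number.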

With KQKYFYKGGLVWDENSSDGRYVKE [CLK3], the protein stability index is, setting by setting: under setting [1], 3.53 ± 0.2; under setting [2], 3.62 ± 0.043.
Regarding KQLRRQMWWRGCKIKAIMALVAAI [VAMP4], the protein stability index reads like this: under setting [1], 1.91 ± 0.44; under setting [2], 1.92 ± 0.23.
Consider KQQIANLDKQAKLSRAYDGTTYLP [USP39], for which the protein stability index under setting [1] was 3.62 ± 0.19 and the protein stability index under setting [2] was 3.87 ± 0.41.
In the case of KRRKSMSGASPKESTNPEKAHETL [CDC25A], the protein stability index under setting [1] was found to be 5.24 ± 0.25 and the protein stability index under setting [2] turned out to be 5.03 ± 0.23.
For KRRRSVTPPEEQQEAEEPKARVLR [CDC25B] the same measures were 5.32 ± 0.24 and 5.67 ± 0.21.
For KRSQSMKSYPSSELRNMCDEHIAS [CLCN6] the same measures were 4.56 ± 0.34 and 4.734 ± 0.012.
KSEYMEIEEDMNNSIAHYRQVNIR [KCNA1]: the protein stability index was 3.34 ± 0.2 under setting [1] and 3.57 ± 0.53 under setting [2].
In the case of KSKKYSDVEVPASVTGYSFASDGD [ADD1], the protein stability index came out at 4.68 ± 0.38 under setting [1] and 4.82 ± 0.22 under setting [2].
With KSSIYESDFQIEPGFYATYESTLF [MIA2], the protein stability index is 2.33 ± 0.52 under setting [1] and 2.3 ± 0.31 under setting [2].
Take KTSAALSTVGSAISRKLGDMRNSA [TPD52L2]: the protein stability index by setting is: under setting [1], 3.64 ± 0.29; under setting [2], 3.7 ± 0.29.
Consider KWLPQQNAAHSLLSTNDKTIKLWK [PPP2R2C], for which the protein stability index was found to be 2.88 ± 0.096 under setting [1] and 3.09 ± 0.32 under setting [2].
For KWWSDRLALFPLLPKVLQKYWCVT [ZBED1], the protein stability index stood at 2.93 ± 1 under setting [1] and 2.73 ± 0.61 under setting [2].
For KYESVLQLGRALTAHLYSLLQTQH [ARFIP2] the same measures were 3.09 ± 0.24 and 2.85 ± 0.092.
Turning to LAKDFIRRLLVKDPKRRMTIAQSL [DAPK3], the protein stability index by setting is: under setting [1], 2.96 ± 0.3; under setting [2], 2.7 ± 0.051.
Take LALEEPVDYKQSVLNVAGEAGGKQ [SLC6A17]: the protein stability index by setting is: under setting [1], 4.91 ± 0.45; under setting [2], 5.32 ± 0.14.
LALSPDLSLSNATVLTRSLFLGRI [FANCE]: the protein stability index was 2.35 ± 0.36 under setting [1] and 2.24 ± 0.3 under setting [2].
In the case of LASYLDRVRSLETENRRLESKIRE [KRT18], the protein stability index stood at 3.58 ± 0.34 under setting [1] and 3.7 ± 0.11 under setting [2].
Consider LATRSNEKQELQELNDRFANFIEK [PRPH], for which the protein stability index by setting is: under setting [1], 4.43 ± 0.25; under setting [2], 4.37 ± 0.095.
As to LCDVVLVVGAKKIYAHRVILSACS [KLHL20], the protein stability index amounted to 2.7 ± 0.29 under setting [1] and 2.74 ± 0.39 under setting [2].
In the case of LCEYFSQHLGEYENVLAALEGLNL [NECAB1], the protein stability index by setting is: under setting [1], 2.61 ± 0.35; under setting [2], 2.63 ± 0.22.
Take LCIIWFSFELLVRFFACPSKATFS [KCNA3]: the protein stability index is, setting by setting: under setting [1], 3.13 ± 0.39; under setting [2], 3.12 ± 0.58.
For LDMNFSLENREEPWVKELQDSKEM [ZNF449] the same measures were 5.31 ± 0.18 and 5.35 ± 0.32.
LEAVAGALVVALWGPLQDSLEHTL [TSPAN10] showed a protein stability index under setting [1] of 3.12 ± 0.95 and a protein stability index under setting [2] of 3.57 ± 0.42.
With LECVKFASHCLMNHPDLAKDLTEY [PDS5B], the protein stability index is, setting by setting: under setting [1], 2.62 ± 0.17; under setting [2], 2.77 ± 0.78.
Take LEDYINDRQYDSRGRFGELLLLLP [HNF4A]: the protein stability index amounted to 2.19 ± 0.32 under setting [1] and 2.22 ± 0.2 under setting [2].
For the sequence LEEGKHSSHEVKALGAMWKLHKSQ [TRIM9], the protein stability index reads like this: under setting [1], 3.83 ± 0.22; under setting [2], 4.22 ± 0.19.
For LEKVLEENAQKKRFNQVLKNLLHA [VPS39] the same measures were 2.85 ± 0.22 and 2.98 ± 0.23.
For LENREEPWVKELQDSKEMKQLLDS [ZNF449] the same measures were 5.49 ± 0.18 and 5.36 ± 0.23.
For LETHFRDVSSTEEFLELSPQKLKE [GAN], the protein stability index amounted to 5.38 ± 0.18 under setting [1] and 5.37 ± 0.084 under setting [2].
LFENSLCRLTHIPAYKVSGDKNEE [ZER1]: the protein stability index runs as follows: under setting [1], 4.05 ± 0.17; under setting [2], 4.04 ± 0.12.
Regarding LFGEKLSGTDAEETILNAFKMLDP [MYL5], the protein stability index under setting [1] was 3.56 ± 0.28 and the protein stability index under setting [2] is 3.31 ± 0.35.
In the case of LFTDRMATRSTTQSNRTSRLIGKK [WEE1], the protein stability index came out at 4.25 ± 0.1 under setting [1] and 4.4 ± 0.063 under setting [2].
In the case of LFYILTFVGAIFNGLTLLILGVIG [RTN2], the protein stability index is 2.7 ± 0.85 under setting [1] and 3.01 ± 0.67 under setting [2].
LHHKRLAKECMLQEENKSLREENK [CBY2]: the protein stability index turned out to be 4.87 ± 0.39 under setting [1] and 4.89 ± 0.21 under setting [2].
Consider LHQTIYNQACKLLSDDYEQVRSAA [INTS4], for which the protein stability index reads like this: under setting [1], 2.96 ± 0.48; under setting [2], 3.09 ± 0.19.
For LHRGQLSLFCLEDKELLCCSCQAD [TRIM35], the protein stability index reads like this: under setting [1], 2.68 ± 0.1; under setting [2], 2.79 ± 0.31.
In turn, LHRTFDPHFLRVPCWKITLFVIVP [MOG] yielded a protein stability index under setting [1] of 3.17 ± 0.56 and a protein stability index under setting [2] of 3.08 ± 0.63.
Sequence LIPRTMADQQARRQERKPKDRRK [NFE2L1] displayed a protein stability index under setting [3] of 5.32 ± 0.22 and a protein stability index under setting [4] of 5.217 ± 0.028.
As to LKDHFSHLLGIPHSVLQIRYSGKI [IQUB], the protein stability index by setting is: under setting [1], 2.19 ± 0.38; under setting [2], 2.06 ± 0.39.
For the sequence LKKHGPICQKTATKKRKTFDSSRQ [ZC2HC1A], the protein stability index by setting is: under setting [1], 4.09 ± 0.26; under setting [2], 4.13 ± 0.38.
In the case of LKKKQKRQAELLEKRLQEIEELER [SRPK2], the protein stability index under setting [1] is 4.2 ± 0.29 and the protein stability index under setting [2] worked out at 4.24 ± 0.49.
For LKKSSQVPRTEAPAPASSTPQEPW [PDLIM7] the same measures were 4.74 ± 0.3 and 4.76 ± 0.46.
For LKLLNHPNVIEYYENFLEDKALMI [NEK8] the same measures were 2.39 ± 0.4 and 2.34 ± 0.23.
The sequence LKPSWFDFGFAILGFAYAKEDKIM [MIA2] came in with a protein stability index under setting [1] of 3.06 ± 0.61 and a protein stability index under setting [2] of 2.34 ± 0.53.
For LKQRTVIEMFKSITHSTVGSKGEK [EHMT1], the protein stability index reads like this: under setting [1], 3.16 ± 0.18; under setting [2], 3.17 ± 0.33.
LKRRFSRLENRYEALAKQVASEMR [DAPK3]: the protein stability index reads like this: under setting [1], 2.47 ± 0.26; under setting [2], 2.69 ± 0.17.
As to LKTSEVTQHLPRECLPENLGGYVK [PTPN9], the protein stability index amounted to 3.97 ± 0.38 under setting [1] and 3.73 ± 0.56 under setting [2].
Turning to LKYIGMAKREINKLLKQKEKKNE [ARL6IP1], the protein stability index by setting is: under setting [3], 3.7 ± 0.17; under setting [4], 3.83 ± 0.31.
As to LLCPLCQEEEQAETPMAPVPLGPL [TRIM15], the protein stability index runs as follows: under setting [1], 3.38 ± 0.67; under setting [2], 3.73 ± 0.35.
For LLDQIREGAQLKKVEQNSRPVSCS [WASL] the same measures were 4.852 ± 0.026 and 4.63 ± 0.24.
Consider LLFAGSSLASQVHAAAVNGDKGAL [INVS], for which the protein stability index worked out at 2.61 ± 0.34 under setting [1] and 2.76 ± 0.21 under setting [2].
For LLFKDLIKLFACYNDGVINLLEKF [SNAP91] the same measures were 3.04 ± 0.34 and 2.81 ± 0.87.
On to LLFPEEEATNGREGLLRFSSWPFS [AUP1], for which the protein stability index under setting [1] is 2.58 ± 0.23 and the protein stability index under setting [2] turned out to be 2.51 ± 0.21.
As for LLGEIDLEKESDTPLQQVSIEEIL [LSM1], the protein stability index is 4.97 ± 0.16 under setting [1] and 4.93 ± 0.27 under setting [2].
Turning to LLGGDLRYHLQQNVHFKEETVKLF [STK32A], the protein stability index is 2.36 ± 0.41 under setting [1] and 2.6 ± 0.27 under setting [2].
With LLIDFAYTSQITVEEGNVQTLLPA [KLHL20], the protein stability index is, setting by setting: under setting [1], 2.29 ± 0.5; under setting [2], 1.94 ± 0.12.
Take LLKPIPEYSPEEESEPPAPNIRNM [TRAF3IP2]: the protein stability index was determined as 5.12 ± 0.11 under setting [1] and 5.22 ± 0.37 under setting [2].
For LLQCLEDLDANLRKLNSRLFVIRG [CRY1] the same measures were 2.67 ± 0.25 and 2.68 ± 0.29.
For LLQTEPQNNQAKELERLIDKAMKK [FIS1], the protein stability index runs as follows: under setting [1], 3.99 ± 0.19; under setting [2], 4.27 ± 0.17.
As to LLRQLGRDAGATPSAAGAPASAPG [ANKRD9], the protein stability index came to 4.12 ± 0.4 under setting [1] and 4.36 ± 0.15 under setting [2].
Regarding LLSIIATVMILPVTHTEISPEQQF [TMEM175], the protein stability index by setting is: under setting [1], 3.47 ± 0.95; under setting [2], 3.02 ± 0.35.
LLWRKQLFCDVTLTAQGQQFHCHK [KLHL14]: the protein stability index by setting is: under setting [1], 2.23 ± 0.41; under setting [2], 1.99 ± 0.23.
Consider LMDEGASSEKKRQSSADGSQPPKK [RBBP5], for which the protein stability index stood at 5.56 ± 0.36 under setting [1] and 5.53 ± 0.24 under setting [2].
With LMMRMGILGRGLQEYQLPYQRVLP [TCAP], the protein stability index by setting is: under setting [1], 2.48 ± 0.4; under setting [2], 2.28 ± 0.25.
On to LMSLQNQLKESKSKIDALSSEKLN [CEP70], for which the protein stability index reads like this: under setting [1], 4.13 ± 0.15; under setting [2], 4.05 ± 0.19.
For LNFWNKQDTLELESPSLTSTPVCS [MYBL2] the same measures were 3.58 ± 0.12 and 3.63 ± 0.2.
As to LNMFLAIINDTYSEVKEELAGQKD [PKD2L1], the protein stability index reads like this: under setting [1], 2.21 ± 0.3; under setting [2], 2.37 ± 0.43.
For LPLRVSFCPLSLWRWQLYAAQSTK [CLPTM1], the protein stability index reads like this: under setting [1], 2.31 ± 0.29; under setting [2], 2.24 ± 0.7.
With LPPNNSYADFERFSKVLEEAAAAE [DAPK3], the protein stability index under setting [1] worked out at 4.95 ± 0.57 and the protein stability index under setting [2] came out at 5.07 ± 0.058.
Turning to LQARERGEEQVELSTIEELIKDAI [C2CD2L], the protein stability index by setting is: under setting [1], 4.14 ± 0.084; under setting [2], 4.13 ± 0.19.
LQGVRLSENVVNRMKEPSSPPPAP [CHCHD6]: the protein stability index under setting [1] worked out at 4.62 ± 0.32 and the protein stability index under setting [2] is 4.939 ± 0.047.
For LQHMKAVQADQERERQRRLEVERE [LRRC59] the same measures were 5.24 ± 0.33 and 5.09 ± 0.27.
